In one test the test system is Human PBMC. As to the kind of experiment: Mixed leukocyte reaction: PBMC stimulated by Jurkat cells expressing HIV envelope variants. Particulars: PBMC with Mitomycin C arrested Jurkat stimulator cells expressing the envelope, 1:1, 96 hrs (FIG. 12).
The test system of test [1] is Human Peripheral Blood Mononuclear Cells (PBMC). Briefly: Immunosuppression of selected peptides: Con A stimulated lymphocyte proliferation (EdU incorporation). In kind it is cell-based. Particulars: Con A (5 ug/mL); for inhibition profile of proliferation at various peptide concentrations: dose-dependence (FIG. 11); for inhibition of lymphocyte proliferation: peptide concentration of 50 uM, 72 hrs, relative to Con A stimulated cells without peptide (FIG. 10). The source says:
The peptides are dimerized via the C-terminal Cysteines and added at the concentrations indicated below.

Another test concerns IFN-gamma. Briefly: Cytokine modulation: IFN-gamma in supernatant of ConA stimulated PBMC (ELISA). Particulars: 50 uM peptide, Con A stimulation of PBMC, 72 hrs, ELISA (FIG. 14). Background: An ELISA detects its analyte on a solid surface through an enzyme-linked reagent.
The subject of a further test is TNF-alpha. As to the kind of experiment: Cytokine modulation: TNF-alpha in supernatant of ConA stimulated PBMC (ELISA). Particulars: 50 uM peptide, Con A stimulation of PBMC, 72 hrs, ELISA (FIG. 14).
The next test has as its system BAB/No Ag. Particulars: R, i.m.; cited from earlier work.
Test [2] has as its system HIV-1. The following applies: M, cited from earlier work.
The next test deals with Influenza. Particulars: M, i.m.; cited from earlier work.
Another test deals with HSV-2. Particulars: M, i.m.; cited from earlier work.
Test [3] deals with HIV-1. The following applies: C, i.m.; cited from earlier work.
For test [4] the following is noted: HSV-3; M, i.m./i.d.; cited from earlier work.
The test system of another test is β-gal. The following applies: M, i.m.; cited from earlier work.

Consider twelve molecules from patent US20110305749A1, “HIV-1 Envelope Polypeptides for HIV Vaccine” (priority 2008, published 2011).

Where two headings read alike, the source gives them in different places.

Experimental for Human PBMC: The experiment utilizes Human PBMC prepared fresh from healthy donors. These are stimulated by adding a human T cell line (Jurkat) at a 1:1 ratio. The jurkat cells have been irreversible arrested by incubating them with 50 ug/mL Mitomycin C for 1 hour prior to PBMC stimulation. Cultures are maintained and lymphocyte proliferation is measured 96 hrs later by EdU incorporation and Click-iT labelling with Oregon Green (Invitrogen, Denmark) as recommended by the manufacturer. The degree of activated lymphocytes is proportional to the flourescence detection.
Experimental for IFN-gamma: (§1) Donor PBMC's were maintained at 10^5 cells/well in a 96-well. […] After 72 hrs, lymphocyte proliferation was measured and supernatants analysed by ELISA for levels of the proinflammatory cytokines, IFN-gamma (FIG. 14 grey bar) and TNF-alpha (FIG. 14 black bar).
Experimental for TNF-alpha: as §1

On to “LQARILAVETLIQNQQLLNLWGC [HIV M/O chimera]”, for which the “lymphocyte proliferation (activation of PBMC)” value in the test on Human PBMC is “decrease is relieved”. Further, in test [1], the “inhibition profile of proliferation at various peptide concentrations” value is “less steep” and the “inhibition of lymphocyte proliferation” value was determined as 22%.
As for LQARVLAVERYLKDQQLLGIWGC [CS-3], the IFN-γ secretion result in the test with IFN-gamma is on record as “significantly reduces”. Also, the TNF-α secretion entry with TNF-alpha is listed as “significantly reduces”. Also, the “inhibition of lymphocyte proliferation” value in test [1] is 82%.
Regarding LQARVLAVERYLKDQQLLRIWGC [HIV G19R], in [1], the “inhibition profile of proliferation at various peptide concentrations” value is “less steep” and the “inhibition of lymphocyte proliferation” value is given as 15%.
Regarding “LQNRRGLDLLFLKEGGLC (HIV) [CKS-17, reference compound]”, the “inhibition of lymphocyte proliferation” value in test [1] is recorded as 93%.
In the case of MCP-1, in the test with BAB/No Ag, the “Effects: Ab/IgG” value is listed as “↑^e” and the “Effects: Protection” value was “↑”.
RANTES: in the test on BAB/No Ag, the “Effects: Ab/IgG” value is listed as “↑^e” and the “Effects: Protection” value was “=”. In addition, the “Effects: CTL” value in the test on HIV-1 [2] (i.m.) is reported as “↑”.

B1: MIP-1β (protein, UniProt P14097 24-92, looked up)
C-C motif chemokine 4: APMGSDPPTSCCFSYTSRQLHRSFVMDYYETSSLCSKPAVVFLTKRGRQICANPSEPWVTEYMSDLELN
B1: in the test on BAB/No Ag, the “Effects: Ab/IgG” value is on record as “↑^e” and the “Effects: Protection” value was “↓”.

B2: TCA-3 (protein, UniProt P10146 24-92, looked up)
C-C motif chemokine 1: KSMLTVSNSCCLNTLKKELPLKFIQCYRKMGSSCPDPPAVVFRLNKGRESCASTNKTWVQNHLKKVNPC
Turning to B2, in the test with HIV-1 [2] (i.m.), the “Effects: Ab/IgG” value is given as “↓”, the “Effects: CTL” value is “↑”, the “Effects: DTH” value is recorded as “↑” and the “Effects: IgG1/IgG2a” value is “↓”.

B3: MIP-1α (protein, UniProt P10855 24-92, looked up)
C-C motif chemokine 3: APYGADTPTACCFSYSRKIPRQFIVDYFETSSLCSQPGVIFLTKRNRQICADSKETWVQEYITDLELNA
For the molecule B3, in the test with BAB/No Ag, the “Effects: Ab/IgG” value is reported as “↑^e” and the “Effects: Protection” value was “↑”. For the same molecule, in the test with HIV-1 [2] (i.m./i.n.), the “Effects: Ab/IgG” value is “↑”, the “Effects: CTL” value is given as “↑”, the “Effects: DTH” value was “↑” and the “Effects: IgG1/IgG2a” value is recorded as “↓”. In addition, in the test on HIV-1 [2] (i.m.), the “Effects: CTL” value is “↑” and the “Effects: IgG1/IgG2a” value is recorded as “↑”.

B4: CD80 (protein, UniProt Q00609 38-306, looked up)
T-lymphocyte activation …: VDEQLSKSVKDKVLLPCRYNSPHEDESEDRIYWQKHDKVVLSVIAGKLKVWPEYKNRTLYDNTTYSLIILGLVLSDRGTYSCVVQKKERGTYEVKHLALVKLSIKADFSTPNITESGNPSADTKRITCFASGGFPKPRFSWLENGRELPGINTTISQDPESELYTISSQLDFNTTRNHTIKCLIKYGDAHVSEDFTWEKPPEDPPDSKNTLVLFGAGFGAVITVVVIVVIIKCFCKHRSCFRRNEASRETNNSLTFGPEEALAEQTVFL
Consider B4, for which the “Effects: CTL” value with Influenza is given as “=”. In the test on HSV-2, the “Effects: Ab/IgG” value is reported as “=”; the “Effects: DTH” value was “= and ↑”; the “Effects: IgG1/IgG2a” value was “=”; the “Effects: Protection” value was “= and ↑”. In the test with HIV-1 [2] (i.m.), the “Effects: Ab/IgG” value is reported as “=”, the “Effects: CTL” value was “=” and the “Effects: DTH” value is “=”.

B5: CD86 (protein, UniProt P42082 24-309, looked up)
T-lymphocyte activation …: VSVETQAYFNGTAYLPCPFTKAQNISLSELVVFWQDQQKLVLYEHYLGTEKLDSVNAKYLGRTSFDRNNWTLRLHNVQIKDMGSYDCFIQKKPPTGSIILQQTLTELSVIANFSEPEIKLAQNVTGNSGINLTCTSKQGHPKPKKMYFLITNSTNEYGDNMQISQDNVTELFSISNSLSLSFPDGVWHMTVVCVLETESMKISSKPLNFTQEFPSPQTYWKEITASVTVALLLVMLLIIVCHKKPNQPSRPSNTASKLERDSNADRETINLKELEPQIASAKPNAE
On to B5, for which the “Effects: CTL” value with Influenza is given as “↑”. Besides, in the test with HIV-1 [2] (i.m.), the “Effects: Ab/IgG” value is given as “=”, the “Effects: CTL” value is recorded as “↑”, the “Effects: DTH” value is reported as “↑” and the “Effects: IgG1/IgG2a” value is “=”. In addition, the “Effects: CTL” value with HIV-1 [3] was “↑”. Moreover, in test [4], the “Effects: Ab/IgG” value is given as “=”, the “Effects: DTH” value is on record as “=”, the “Effects: IgG1/IgG2a” value is listed as “=” and the “Effects: Protection” value is given as “=”.

B6: CD40L (protein, UniProt P27548 112-260, looked up)
CD40 ligand, soluble form: MQRGDEDPQIAAHVVSEANSNAASVLQWAKKGYYTMKSNLVMLENGKQLTVKREGLYYVYTQVTFCSNREPSSQRPFIVGLWLKPSSGSERILLKAANTHSSSQLCEQQSVHLGGVFELQAGASVFVNVTEASQVIHRVGFSSFGLLKL
Consider B6, for which, in the test on β-gal, the “Effects: Ab/IgG” value was “↑”, the “Effects: CTL” value was “↑”, the “Effects: IgG1/IgG2a” value was “↓” and the “Effects: Protection” value was “↑”.
